Patent US20220281967A1 (OREGA BIOTECH, published 2022)

What was measured:
[1] = target: T1, human IL-17B (R&D Systems, ref: 1248-IB/CF) (UniProt Q9UHF5 21-180); experiment: ELISA
T1 chain: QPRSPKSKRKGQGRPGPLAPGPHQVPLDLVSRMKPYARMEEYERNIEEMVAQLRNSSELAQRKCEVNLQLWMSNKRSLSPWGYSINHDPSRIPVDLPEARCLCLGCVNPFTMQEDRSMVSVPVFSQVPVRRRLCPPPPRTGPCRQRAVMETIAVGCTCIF

[2] = target: T2, human IL-17B (R&D Systems, ref: 1248-IB/CF) (human, UniProt Q9UHF5 21-180); experiment: ELISA, human IL-17B coated on the plate, goat anti-mouse HRP detection
T2 construct: Bought recombinant protein; also called hIL-17B; interleukin 17B
T2 sequence: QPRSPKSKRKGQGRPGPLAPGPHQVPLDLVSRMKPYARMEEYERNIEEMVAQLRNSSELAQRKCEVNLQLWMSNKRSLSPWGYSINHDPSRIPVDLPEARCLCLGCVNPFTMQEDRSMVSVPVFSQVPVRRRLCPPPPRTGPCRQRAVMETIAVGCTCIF

B1: Antibody 12F9 (antibody, V domains shown)
VH: QVQLQQSGPELVKPGASVKISCKASGYTFTDYFINWVRQRPGQGLEWIGWIFPGSGSTYYHEKFKGKATLTVDKSSSTAYMLLSSLTSEDSAVYFCARTLYGNWYFDVWGTGTTVTVSS
VL: DVLMTQTPLSLPVSLGDQASISCRSSQSIVHSNGNTYLEWYLQKPGQSPKLLIYKVSNRFSGVPDRFSGSGSGTDFTLKISRVEAEDLGVYYCFQGSHVPYTFGGGTKLEIK
notes: Mouse monoclonal antibody directed against human IL-17B; also called mAb 12F9
Question: For B1, which EC50 [1] is on record?
Answer: Its EC50 is 13.7 ng/mL.

Question: Does B1 bind [2]?
Answer: Result: binds

B2: Antibody 21H6 (antibody, V domains shown)
VH: QVTLKESGPGILQPSQTLSLTCSFSGFSLSTFGMGVGWIRQPSGKGLEWLAHIWWDDDKYYNPALKGRLTISKDTSKNQVFLKIANVDTADTATYFCARIEDALDYWGQGTSVTVSS
VL: DIVMTQSPATLSVTPGDRVSLSCRASQNISDYLHWYQQKSHESPRLLIKYTSQSISGIPSRFSGSGSGSDFTLSINSVEPEDVGVYYCQNGHSFPFTFGSGTKLEIK
notes: Mouse monoclonal antibody directed against human IL-17B; also called mAb 21H6
Question: With B2 as the binder, how does the EC50 [1] read?
Answer: Its EC50 is 2.28 ng/mL.

Question: Does B2 bind [2]?
Answer: Result: binds

B3: Antibody 18G9 (antibody, V domains shown)
VH: QITLKESGPGILKPSQTLSLTCSFSGFSLSTSGMGVGWIRQPSGKGLEWLAHIWWDDDKYYNPSLKSQLTISKDTSRNQVFLRITSVDTADTATYYCARRTQGYFDYWGQGTTLTVSS
VL: DILMTQSPASLAVSLGQRATISCKASQSVDYDGDSYMNWYQQKPGQPPKLLIYAASNLESGIPARFSGSGSGTDFTLNIHPVEEEDAATYYCQQSNEDPLTFGAGTKLELK
notes: Mouse monoclonal antibody directed against human IL-17B; also called mAb 18G9; 18G9a
Question: How did the EC50 [1] turn out when B3 was run?
Answer: Its EC50 is 6.88 ng/mL.

Question: Does B3 bind [2]?
Answer: Result: binds

B4: Antibody 13H5 (antibody, V domains shown)
VH: QVTLKESGPGILQPSQTLSLTCSFSGFSLSTFGMGVGWIRQPSGKGLEWLAHIWWDDDKYYNPALKSRLTISKDTSKNQVFLKIANVDTADTATYYCARMNDGYLYYWGQGTSVTVSS
VL: QIVLTQSPAIMSASPGEKVTMTCSASSSVSYMYWYQQKPGSSPRLLIYDTSNLASGVPVRFSGSGSGTSYSLTISRMEAEDAATYYCQQWSSYPFTFGSGTKLEIK
notes: Mouse monoclonal antibody directed against human IL-17B; also called mAb 13H5
Question: Which results are given for B4?
Answer: EC50 [1]: 6.64 ng/mL; binding result [2]: binds
